# The nanobody polyreactivity screen of Harvey et al. (2022)
# Experiment: yeast display, Sf9 membrane polyspecificity reagent, FACS + sequencing; frameworks hold sequencing errors
# Procedure, shortened: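 A nanobody's polyreactivity label depends on the gate it was sorted from. Yeast display cells were stained with 10% biotinylated, detergent-solubilized Sf9 membrane reagent for 1 hour at 4 °C, enriched on streptavidin microbeads and sorted by FACS. The low and high (top ~1%) gates were set on anti-HA fluorescence for expression and streptavidin fluorescence for reagent binding.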
row,Sequence,polyreactivity (PSR sort gate)
1,QVQLVESGGGLVQAGGSLRLSCAASGRSFGNYVMGWYRQAPGKERELVAAISRSGGSTYYADSVKGRFTISRDNAKNIVYLQMNSLKPEDTAVYYCNTVTTYDVEYWGQGTQVTVSS,high polyreactivity
2,QVQLVESGGGLVQAGGSLRLSCAASGRSFLGYPMGWYRQAARKERELVAAISSSGTSTYYADSVKGRFTISRDNAQNTVYLQMNSLKPEETSVYYCAKYAYSYYPPAYDYWGQGTKVTVSS,high polyreactivity
3,QVQLVESGGGLVQAGGSLRLSCAASGRSFRDYGMGWYRQAPGKERELVAVITWGGGSTYYADSVKGRFTISRDNAKNTVYLQMNSLKPEDTAVYYCAKEYHYYYWGQGTQVTVSS,low polyreactivity
4,QVQLVESGGGLVQAGGSLRLSCAASGRSFSIYAMGCYRQAPGKERELVASISRGISTNYADSVKGRFTISRDNAKNTVYLQMNSLKPEDTAVYYCASDLFSNYRYWGQGTQVTVSS,high polyreactivity
5,QVQLVESGGGLVQAGGSLRLSCAASGRSFYFNAMGWYRQAPGKEWELVAVINSSGSTDYADSVKGRFTISRDNAKNTVYLQMNSLKPEDTAVYYCAAEVTPSGYGYWGQGTQVTVSS,low polyreactivity
6,QVQLVESGGGLVQAGGSLRLSCAASGRSLEHNAMGWYSQAPGKERELVAAISGSGGTTYYADSVKGRFTISRDNAKNTVYLQMNSLKPEDTAVYYCNAKLYRSFDYWGQGTQVTVSS,low polyreactivity
7,QVQLVESGGGLVQAGGSLRLSCAASGRTCKPYAMGWYRQAPGKEREVVAVITSNGSSTYYADSVKGRFTISRDNAKNTVYLQMNSLKPEDTAVYYCATKLTYTLTSGAYAYDYWGQGTQVTVSS,low polyreactivity
8,QVQLVESGGGLVQAGGSLRLSCAASGRTCKYYAMGWYRQAPGKERELVATITWSGTSTNNADSVKGRFTISRDNAKNTVYLQMNSLKPEETAVYYCAARSKRRNYDYWGQGTQVTVSS,high polyreactivity
9,QVQLVESGGGLVQAGGSLRLSCAASGRTFAAYAMGWYRQAPGKERELVAAITSGGGTYYADSVKGRFTISRDNAKNTVYLQMNSLKPEDTAVYYCAADYISVYGYEYYYWGQGTQVTVSS,high polyreactivity
10,QVQLVESGGGLVQAGGSLRLSCAASGRTFAFNTMGWYRQAPGKERELVDAIRFSAGSTYYADSVKGRFTISRDNAKNTVYLQMNSLKPEDTAVYYCAASYGDRGGWGPGVDYWGQGTQVTVSS,low polyreactivity
11,QVQLVESGGGLVQAGGSLRLSCAASGRTFAFYTLGWYRQAPGKERELVAAITRNGSTSYADSVKGRFTISRDNAKNTVFLQMNRLKPEDTAVYYCATVGYPYTLWHQMDYWGQGTQVTVSS,low polyreactivity
12,QVQLVESGGGLVQAGGSLRLSCAASGRTFAFYTMGWYRQAPGKEREFVAASSWSGGSTHYADSVKGRFTISRDNEKNTVYLQMNSLTQEYTAVYYCAAGPFYRFTDGRDKTLDYWGQGNQVTVSS,high polyreactivity
13,QVQLVESGGGLVQAGGSLRLSCAASGRTFAGNAMGWYRQAPGKERELVAAISQGGGSTYYADSVKGRFTFSRDNATNSVYLQMNRLNPDDTAVYYCAAEIPRRWASFATLWYDYWGQGTQVTVSS,low polyreactivity
14,QVQLVESGGGLVQAGGSLRLSCAASGRTFAGNAMGWYRQAPGKERELVASISSSAGRTYYADSVKGRFTISRDNAKNTVYLQMNSLKPEDTAVDYCAARGGYVSTWTRFSKYNYWGQGTQVTVSS,high polyreactivity
15,QVQLVESGGGLVQAGGSLRLSCAASGRTFAGNAMGWYRQAPGKERELVATITSRGTITYYADSVKGRFTISRDNAKNTVYLQMHSLKPEDTAVSYCNVRYYFPRYQQPYQLNEYYYWGQGTQVTVSS,low polyreactivity
16,QVQLVESGGGLVQAGGSLRLSCAASGRTFAIYAMGWYRPAPGKEREFVAAISWSGGDTYYADSVKGRFTISRDNAKNTVYLQMNSLKPEDTAVYYCAARDYDYEGRDLQYELDYWGQGTQVTVSS,low polyreactivity
17,QVQLVESGGGLVQAGGSLRLSCAASGRTFALYAMAWYRQAPGKERELVASISWRGGSTYYADSVKGRFTISRDNAKNTVYLQMNSLKPEDTAVYYCAADTWSYGPLNYRLEYWGQGTQVTVSS,low polyreactivity
18,QVQLVESGGGLVQAGGSLRLSCAASGRTFALYAMGSYRQAPGKERELVAGITFRGGSTYYADSVKGRFTISRDNAKNTVYLQMNSLKPEDTAVYYCAAVPRVNLSRYVYFWYDYWGQGTQVTVSS,high polyreactivity
19,QVQLVESGGGLVQAGGSLRLSCAASGRTFANYAMGWYRQAPGKERELVAAISVSTVSTYYADSVKGRFTISRDNAKNTVYLQMNSLKPEDTAVYYCAATSPYKYWYRYNYWGQGTQVTVSS,high polyreactivity
20,QVQLVESGGGLVQAGGSLRLSCAASGRTFAPYAMAWYRQAPGKERELVAVISSSGGRTYYADSVKGRFTISRDNAKNTVYLQMNSLKPEDTAVYYCAADVYGYRFFKTGRYDYWGQGSQVTVSS,high polyreactivity
21,QVQLVESGGGLVQAGGSLRLSCAASGRTFAQYVMGWYRQAPGTERELVAAISGIGGSTYYADSVKGRFTISRDNAKNTVYLQMNSLNPEDTAVYYCAVELYWYPGYDYWGQGTQVTVSS,low polyreactivity
22,QVQLVESGGGLVQAGGSLRLSCAASGRTFARNAMGRYRQAPVKERELVAVISKGGSRTYYADSVKGRFTISRDNEKNTVYLQMNSLKPEDTAVYYCAARHYVTRDESYDYWGQVTQVTVSS,high polyreactivity

row,Sequence,polyreactivity (PSR sort gate)
1,QVQLVESGGGLVQAGGSLRLSCAASGRTFARNAMGWYRQAPGKERELVAAITSGGSTNYADSVKGRFTISRDNAKNTVYLQMNSLIPEDTAVYYCAADGAQYYYGRYYYWGQGTQVTVSS,high polyreactivity
2,QVQLVESGGGLVQAGGSLRLSCAASGRTFARYAMGWYRQAPGKERELVAAISWSGGSTYYADSVKGRFTISRDNAKNTVYLQMNSLKPEDTAVYYCAAGYGARSAIFDVYGTNEGDYWGQGTQVTVSS,high polyreactivity
3,QVQLVESGGGLVQAGGSLRLSCAASGRTFARYAMGWYRQAPWKERELVAAISRGGDSTYYADSVKGRFTISRDNAKNNVYLQMNSLKPEDTADYYCNAYVILALGYGGYDYWGQGTQVTVSS,high polyreactivity
4,QVQLVESGGGLVQAGGSLRLSCAASGRTFASNAMGWYRQAPGKERELVAAISSAGGTNYADSVKGRFTISRDNAKNTVYLQMNSLKPEDTAVYYCAAASPYYSYHRYIYYYWGQGTQVTVSS,high polyreactivity
5,QVQLVESGGGLVQAGGSLRLSCAASGRTFASNVMGWYRQAPGKERELVAAISRRGGSTYYADSVKGRFTISRDNAKNTVYLQMNSLKPEDTAVYYCNAVLYHLTYDYWGQGTQVTVSS,high polyreactivity
6,QVQLVESGGGLVQAGGSLRLSCAASGRTFASYAMGWYRQAPGKERELVAVITRGGRTYYADSVKGRFTISRDNAKNTVYLQMNSLKPEDTAVYYCNAAYYSSSYLEDSWGQGTQVTVSS,high polyreactivity
7,QVQLVESGGGLVQAGGSLRLSCAASGRTFASYMGWYRQAPWKERELVAAINWSGGTTYYADSVKGRFTISRDNAKNSVYLQMNSLKPEDTAVYYCNKLGYQSRGDYWGQGTQVTVSS,high polyreactivity
8,QVQLVESGGGLVQAGGSLRLSCAASGRTFASYVMGWYRQAPGKERELVASITRTGSTYYADSVKGRFTISRDNAKNTVYLQMNSLKPEDTAVYYCNAATFYRRSSTRGFNYWGQGTQVTVSS,high polyreactivity
9,QVQLVESGGGLVQAGGSLRLSCAASGRTFATYSMGRYIQAPGKERELVAAISRSGSTTYYADSVKGRFTISRDNAKNTVYLQMNSLKPEDTAVYYCNAKFRKADYDYWGQGTQVTVSS,high polyreactivity
10,QVQLVESGGGLVQAGGSLRLSCAASGRTFAYNAMGWYRQAPGKERELVAAISSSGGSTYYADSVKGRFTISRDNAKNTVYLQMNSLKPEDTAGYYCATQGFSWAHGSDYWGQGTQVTVSS,low polyreactivity
11,QVQLVESGGGLVQAGGSLRLSCAASGRTFAYNAMGWYRQAPGKERELVAANTDSDGNTNYADSVKRRFTISRDNAKNTVYVLLNSLIPEDTAVDYCAADYIILVHVTRGFGYEYWGQGTQVTVSS,low polyreactivity
12,QVQLVESGGGLVQAGGSLRLSCAASGRTFAYYAMGWYKQAPGKERELVAAISWSGGSTYYADSVKGRFTISRDNAKYTVYLQMNSLKPEDTAVYYCNTLGGTEYGYWGQGTQVTVSS,high polyreactivity
13,QVQLVESGGGLVQAGGSLRLSCAASGRTFAYYAMGWYRQAPGKERELVAAISTSGTRTYYADSVKGRFTISRDNAKNTVYLQMNSLKPEDTAVYYCAARYRYQYEFDYWGQGTQVSVSS,high polyreactivity
14,QVQLVESGGGLVQAGGSLRLSCAASGRTFAYYAMGWYRQAPGKERELVATITWNGGSTYYADSVKGRFTISRDNAKNTVYLQMNSLKPEDTAVYYCAVRLWFDYNYWGQGTQVTVSS,low polyreactivity
15,QVQLVESGGGLVQAGGSLRLSCAASGRTFAYYAMGWYRQAPGTERELVATINSAGCTYYADSVKGRFTISRDNAKNTVYLQMNSLKPEDTAVYYCNAAYKSQVRYRRYIYWGQGTQVTVSS,high polyreactivity
16,QVQLVESGGGLVQAGGSLRLSCAASGRTFAYYTMGWYRQAPGKERELVAAITSSGGSTYYADSVKGRFTISRDNAKNTVYLQMNSLKPEDTAVYYCNAYGLRWASRLGYDYWGQGTQVTVSS,high polyreactivity
17,QVQLVESGGGLVQAGGSLRLSCAASGRTFAYYVMGWYIQAPGTERELVAAISWSAGCTYYADSVKGRFTISRDNAKNTVYLQMNSLIPEDTAVDYCAADYRFRYEYWGQGTQVTVSS,low polyreactivity
18,QVQLVESGGGLVQAGGSLRLSCAASGRTFCVNAMGWSRQAPGKERELVAAITGGGSTYYADSVKGRFTISRDNAKNTVYLQMNSLKPEDTAVYYCNADRRRRSGGFAGWHFQRNDYWGQGTQVTVSS,low polyreactivity
19,QVQLVESGGGLVQAGGSLRLSCAASGRTFCYYTMVWYRQAPGKEREMVASISRVTSTYYADSVKGRFTISRDNAKNTVDLQMNSVKPEDTAVYYCAADRTRYYVGYRWTGNKMVYWGQGTQVTLSS,low polyreactivity
20,QVQLVESGGGLVQAGGSLRLSCAASGRTFDAYAMGWYRQAPGKERELVAAIRRGSSTNYADSVKGRFTISRDNAKNTVYLQMNSLKPEDTAVYYCAARRQWLGIRTGYNYWGQGTQVTVSS,high polyreactivity
21,QVQLVESGGGLVQAGGSLRLSCAASGRTFDDNAMGWYRQAPGKERELVAAISSTGSTNYADSVKGRFTISRDNAKNTVYLQMNSLKPEDTAVYYCNTDRGHERAYYYWGQGTQVTVSS,low polyreactivity
